From patent US20210315964A1 (University of Pennsylvania, published 2021)

Tests used:
Experiment in all cases: cell-based or functional assay
[1] = target: T1, recombinant human peroxiredoxin 6 (hPrdx6) (human, UniProt P30041 1-224, limits assumed)
T1 sequence (looked up): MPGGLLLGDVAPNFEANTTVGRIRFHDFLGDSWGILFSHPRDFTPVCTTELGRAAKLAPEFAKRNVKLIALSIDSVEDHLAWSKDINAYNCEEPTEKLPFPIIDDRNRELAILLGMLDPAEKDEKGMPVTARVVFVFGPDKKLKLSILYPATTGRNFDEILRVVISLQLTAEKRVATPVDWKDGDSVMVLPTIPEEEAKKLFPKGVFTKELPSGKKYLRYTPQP

[2] = target: T1, recombinant human peroxiredoxin 6 …; remark: listed apart in the source
[3] = target: T1, recombinant human peroxiredoxin 6 …; remark: listed apart in the source

Binder | aiPLA2 activity of human recombinant Prdx6 with peptide (no peptide, hPrdx6 only: 99.91) [1] [nmol/min/mg prot.] | aiPLA2 activity of recombinant hPrdx6 with peptide (hPrdx6 only, no peptide: 93.4) [2] [nmol/min/mg prot.] | aiPLA2 activity of human recombinant protein with peptide (hPrdx6 only: 92.0) [3] [nmol/min/mg prot.]
LYDIRHQIL [PIP-5 LYDIRHQIL] | 29.7 | – | –
QTELYEIKHQIL [SEQ ID NO: 11 QTELYEIKHQIL (12)] | – | 31.5 | –
LRFDHHQIL [SN020 LRFDHHQIL] | 99 | – | –
DEELQATLHDFRHQIL [PIP-1 (human, 16-mer) DEELQATLHDFRHQIL] | – | 45 | –
LHDFRDQIL [SN024 LHDFRDQIL] | 102 | – | –
DEELQTELYEIK [SEQ ID NO: 15 … (14)] | – | 102 | –
ELYEIKHQIL [SEQ ID NO: 12 ELYEIKHQIL (10)] | – | 28.6 | –
LHDFRHQLL [SN028 LHDFRHQLL] | 102 | – | –
LHDFRHNIL [SN026 LHDFRHNIL] | 99 | – | –
LHEFKHQIL [SN022 LHEFKHQIL] | 99.4 | – | –
LYEIKHQIL [PIP-4 LYEIKHQIL] | – | – | 32.3
LHDFRHQTL [SN029 (row of SEQ ID NO: 33) LHDFRHQTL] | 100 | – | –
YEIKHQIL [SEQ ID NO: 13 YEIKHQIL (8)] | – | 94.4 | –
DEELQTELYEI [SEQ ID NO: 16 … (12)] | – | 95.7 | –
LFKLEHQIL [SN023 LFKLEHQIL] | 98 | – | –
LHDFRPQIL [SN025 LHDFRPQIL] | 101 | – | –
LHDFRHQIL [PIP-2 LHDFRHQIL] | 26.2 | – | 29.9
LHDFRHIIL [SN029 (row of SEQ ID NO: 31) LHDFRHIIL] | 97.3 | – | –
IKHQIL [SEQ ID NO: 14 IKHQIL (6)] | – | 97.1 | –
DEELQTELYEIKHQIL [PIP-3 (rat, mouse, 16-mer) DEELQTELYEIKHQIL] | – | 32 | 32
TLHDFRHQI [SEQ ID NO: 19 … (10)] | – | – | 31.5
ELQTELYEIKHQIL [SEQ ID NO: 10 ELQTELYEIKHQIL (14)] | – | 33.2 | –
LKIEYHQIL [SN019 LKIEYHQIL] | 97.7 | – | –
